# Experimental data from US20190002588A1 (NATIONAL UNIVERSITY CORPORATION CHIBA UNIVERSITY, published 2019).
# Where a chain is given by its changes, count along the chain named. Names may count otherwise.
# B1: chimeric antibody prepared from Antibody A (antibody, human IgG2, kappa, V domains shown)
# VH: QVQLQQSGAEVVRPGASVTLSCKASGYTFTDYEMHWVKQTPVHGLEWIGAIDPETGGTAYNQKFKGKAILTADKSSNTAYMELRSLTSEDSAVYYCTDYDYDGFAYWGQGTLVTVSA
# VL: DVVMTQTPLSLPVSLGDQASISCRSSQSLVHSNGNTYLHWYLQKPGRSPKLLISKVSNRFSGVPDRFSGSGSGTDFTLKITRVEAEDLGVYFCSQNTHVPPLTFGAGTKLELKR
# notes: VH and VL amino acid numbers 13 and 15 are deduced as for Antibody A
# B2: Humanized antibody No. 117 (antibody, human IgG2, kappa, V domains shown)
# VH: QVQLVQSGAEVKKPGASVKVSCKASGYTFTDYEMHWVRQAPGQGLEWMGAIDPETGGTAYNQKFKGRATMTADTSTSTAYMELSSLRSEDTAVYYCADYDYDGFAYWGQGTLVTVSS
# VL: DIVMTQSPLSLSITPGEQASISCRSSQSLVHSNGNTYLHWYLQKPGQSPQLLISKVSNRFSGVPDRFSGSGSGTDFTLKISRVEAEDVGVYFCSQNTHVPPLTFGGGTKVEIKR
# notes: human IgG2 (V234A, G237A, C-terminal Lys deleted) / kappa; Expi293F, Protein A purified; also called HK2-6/L1-5
# B3: Humanized antibody No. 122 (antibody, human IgG2, kappa, V domains shown)
# VH: B2 VH with A16S, N61A, K65Q, M70I, T74K, S84R
# VL: DIVMTQTPLSSPVTLGQPASISCRSSQSLVHSNGNTYLHWYQQRPGQPPRLLISKVSNRFSGVPDRFSGSGAGTDFTLKISRVEAEDVGVYFCSQNTHVPPLTFGGGTKVEIKR
# notes: human IgG2 (V234A, G237A, C-terminal Lys deleted) / kappa; Expi293F, Protein A purified; also called HA1-4/L4-2
# B4: Humanized antibody No. 128 (antibody, human IgG2, kappa, V domains shown)
# VH: B2 VH
# VL: B3 VL
# notes: human IgG2 (V234A, G237A, C-terminal Lys deleted) / kappa; Expi293F, Protein A purified; also called HK2-6/L4-2
# B5: Humanized antibody No. 125 (antibody, human IgG2, kappa, V domains shown)
# VH: B2 VH with A16S, Y27G, T30S, M70I, T74K, S84R
# VL: B3 VL
# notes: human IgG2 (V234A, G237A, C-terminal Lys deleted) / kappa; Expi293F, Protein A purified; also called HK1-4/L4-2
# B6: Humanized antibody No. 129 (antibody, human IgG2, kappa, V domains shown)
# VH: B2 VH with A68V, T74K
# VL: B3 VL
# notes: human IgG2 (V234A, G237A, C-terminal Lys deleted) / kappa; Expi293F, Protein A purified; also called HK2-9/L4-2
# B7: Humanized antibody No. 121 (antibody, human IgG2, kappa, V domains shown)
# VH: B2 VH with A16S, N61A, K65Q, A68V, M70I, T74K, S84R
# VL: B3 VL
# notes: human IgG2 (V234A, G237A, C-terminal Lys deleted) / kappa; Expi293F, Protein A purified; also called HA1-6/L4-2
# B8: Humanized antibody No. 123 (antibody, human IgG2, kappa, V domains shown)
# VH: B2 VH with A16S, Y27G, T30S, A68V, M70I, T74K
# VL: B3 VL
# notes: human IgG2 (V234A, G237A, C-terminal Lys deleted) / kappa; Expi293F, Protein A purified; also called HK1-5/L4-2
# B9: Humanized antibody No. 126 (antibody, human IgG2, kappa, V domains shown)
# VH: B2 VH with A16S, T30S, M48I, M70I, T74K, S84R, A97T
# VL: B3 VL
# notes: human IgG2 (V234A, G237A, C-terminal Lys deleted) / kappa; Expi293F, Protein A purified; also called HK1-A/L4-2
# B10: Humanized antibody No. 127 (antibody, human IgG2, kappa, V domains shown)
# VH: B2 VH with A68V
# VL: B3 VL
# notes: human IgG2 (V234A, G237A, C-terminal Lys deleted) / kappa; Expi293F, Protein A purified; also called HK2-5/L4-2
# B11: Humanized antibody No. 118 (antibody, human IgG2, kappa, V domains shown)
# VH: B2 VH with A68V, T74K
# VL: B2 VL
# notes: human IgG2 (V234A, G237A, C-terminal Lys deleted) / kappa; Expi293F, Protein A purified; also called HK2-9/L1-5
# B12: Humanized antibody No. 124 (antibody, human IgG2, kappa, V domains shown)
# VH: B2 VH with A16S, Y27G, T30S, A68V, M70I, T74K, S84R
# VL: B3 VL
# notes: human IgG2 (V234A, G237A, C-terminal Lys deleted) / kappa; Expi293F, Protein A purified; also called HK1-6/L4-2
# B13: Humanized antibody No. 131 (antibody, human IgG2, kappa)
# heavy: QVQLVQSGSELKKPGASVKVSCKASGYTFTDYEMHWVRQAPGQGLEWMGAIDPETGGTAYNQKFKGRFVFSLDTSVSTAYLQISSLKAEDTAVYYCADYDYDGFAYWGQGTLVTVSSASTKGPSVFPLAPCSRSTSESTAALGCLVKDYFPEPVTVSWNSGALTSGVHTFPAVLQSSGLYSLSSVVTVPSSNFGTQTYTCNVDHKPSNTKVDKTVERKCCVECPPCPAPPAAAPSVFLFPPKPKDTLMISRTPEVTCVVVDVSHEDPEVQFNWYVDGVEVHNAKTKPREEQFNSTFRVVSVLTVVHQDWLNGKEYKCKVSNKGLPAPIEKTISKTKGQPREPQVYTLPPSREEMTKNQVSLTCLVKGFYPSDIAVEWESNGQPENNYKTTPPMLDSDGSFFLYSKLTVDKSRWQQGNVFSCSVMHEALHNHYTQKSLSLSPG
# light: DIVMTQSPLSLPVTPGEPASISCRSSQSLVHSNGNTYLHWYLQKPGQSPQLLISKVSNRFSGVPDRFSGSGSGTDFTLKISRVEAEDVGVYFCSQNTHVPPLTFGGGTKVEIKRTVAAPSVFIFPPSDEQLKSGTASVVCLLNNFYPREAKVQWKVDNALQSGNSQESVTEQDSKDSTYSLSSTLTLSKADYEKHKVYACEVTHQGLSSPVTKSFNRGEC
# notes: human IgG2 (V234A, G237A, C-terminal Lys deleted) / kappa; Expi293F, Protein A purified; also called HK3-2/L1-4
# B14: Humanized antibody No. 134 (antibody, human IgG2, kappa, V domains shown)
# VH: QVQLVQSGSELKKPGASVKVSCKASGYTFTDYEMHWVRQAPGQGLEWMGAIDPETGGTAYNQKFKGRFVFSLDTSVSTAYLQISSLKAEDTAVYYCADYDYDGFAYWGQGTLVTVSS
# VL: B3 VL
# notes: human IgG2 (V234A, G237A, C-terminal Lys deleted) / kappa; Expi293F, Protein A purified; also called HK3-2/L4-2
# B15: Humanized antibody No. 132 (antibody, human IgG2, kappa)
# heavy: B13 heavy
# light: B13 light with I2V
# notes: human IgG2 (V234A, G237A, C-terminal Lys deleted) / kappa; Expi293F, Protein A purified; also called HK3-2/L1-A
# B16: Humanized antibody No. 133 (antibody, human IgG2, kappa)
# heavy: B13 heavy
# light: B13 light with P12S, V13I, P18Q
# notes: human IgG2 (V234A, G237A, C-terminal Lys deleted) / kappa; Expi293F, Protein A purified; also called HK3-2/L1-5
# Biological target: T1, human Myl3-His (human, UniProt P08590 2-195, limits assumed)
# T1 construct: Made in E. coli; the GST tag was cleaved with PreScission Protease
# T1 sequence (P08590 2-195 limits assumed): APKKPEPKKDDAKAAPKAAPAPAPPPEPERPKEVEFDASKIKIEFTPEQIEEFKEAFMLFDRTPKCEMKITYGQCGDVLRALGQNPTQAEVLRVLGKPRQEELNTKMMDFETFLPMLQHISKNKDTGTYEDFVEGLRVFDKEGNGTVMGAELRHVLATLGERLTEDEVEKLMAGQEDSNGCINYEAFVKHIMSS
# Assay: ELISA at 0.01, 0.1 and 1 µg/mL, human Myl3-His coated, anti-human IgG-HRP
# Experimental: (§1) The binding ability of chimeric and humanized antibodies prepared from Antibody A against human Myl12a and Myl12b was evaluated following the steps below by ELISA. Human Myl3-His, human Myl9-His, human Myl12a-His and human Myl12b-His were coated onto the wells of a 96-well plate (Nunc), respectively. After an overnight incubation at 4° C., the wells were blocked at room temperature for one hour with 1× Block Ace (DS Pharma Biomedical Co., Ltd.). After washing three times with 0.02% Tween 20/PBS, the chimeric and humanized antibodies were diluted at the concentration of 0.01, 0.1 and 1 μg/mL, respectively and added to the wells. After incubation at room temperature for one hour and washing three times, horseradish peroxidase-labeled anti-human IgG antibody (Jackson ImmunoResearch Laboratories) was added, and this was incubated at room temperature for one hour. After washing 5 times, TMBZ (3,3′,5,5′-tetramethylbenzidine) solution was added to the wells, and this was incubated for 5-20 minutes at room temperature. An equal amount of reaction quenching solution (2N H₂SO₄) was added to the wells, and absorbance at 450 nm was read with a microplate reader (Thermo Scientific).
row,Binder,binding result
1,B1,no binding (tested: 1 µg/mL)

# Biological target: T2, human Myl9-His (human, UniProt P24844 2-172, limits assumed)
# T2 construct: Made in E. coli; the GST tag was cleaved with PreScission Protease
# T2 sequence: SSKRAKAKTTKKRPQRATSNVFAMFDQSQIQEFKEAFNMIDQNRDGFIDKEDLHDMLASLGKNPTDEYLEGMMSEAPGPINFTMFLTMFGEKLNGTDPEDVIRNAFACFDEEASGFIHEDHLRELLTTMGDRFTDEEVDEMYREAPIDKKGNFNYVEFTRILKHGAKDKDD
# Assay: ELISA, human Myl9-His coated, anti-human IgG-HRP
# Experimental: (§2) The binding ability against human Myl9 was evaluated following the steps below by ELISA. Human Myl3-His and human Myl9-His were coated onto the wells of a 96-well plate (Nunc). After an overnight incubation at 4° C., the wells were blocked at room temperature for one hour with 1× Block Ace (DS Pharma Biomedical Co., Ltd.). After washing three times with 0.02% Tween 20/PBS, seven serial dilutions by six folds of the chimeric and humanized antibodies were made from a concentration of 10 μg/mL and added to the wells. After incubation at room temperature for one hour and washing three times, horseradish peroxidase-labeled anti-human IgG antibody (Jackson ImmunoResearch Laboratories) was added, and this was incubated at room temperature for one hour. After washing 5 times, TMBZ (3,3′,5,5′-tetramethylbenzidine) solution was added to the wells, and this was incubated for 5-20 minutes at room temperature. An equal amount of reaction quenching solution (2N H₂SO₄) was added to the wells, and absorbance at 450 nm was read with a microplate reader (PerkinElmer).
row,Binder,binding result
1,B1,binds
2,B2,binds
3,B3,binds
4,B4,binds
5,B5,binds
6,B6,binds
7,B7,binds
8,B8,binds
9,B9,binds
10,B10,binds
11,B11,binds
12,B12,binds
13,B13,binds
14,B14,binds
15,B15,binds
16,B16,binds

# Biological target: T1, human Myl3-His
# Assay: ELISA, human Myl3-His coated, anti-human IgG-HRP
# Experimental: as §2
row,Binder,binding result
1,B2,no binding (tested: 10 µg/mL)
2,B3,no binding (tested: 10 µg/mL)
3,B4,no binding (tested: 10 µg/mL)
4,B5,no binding (tested: 10 µg/mL)
5,B6,no binding (tested: 10 µg/mL)
6,B7,no binding (tested: 10 µg/mL)
7,B8,no binding (tested: 10 µg/mL)
8,B9,no binding (tested: 10 µg/mL)
9,B10,no binding (tested: 10 µg/mL)
10,B11,no binding (tested: 10 µg/mL)
11,B12,no binding (tested: 10 µg/mL)
12,B13,no binding (tested: 10 µg/mL)
13,B14,no binding (tested: 10 µg/mL)
14,B15,no binding (tested: 10 µg/mL)
15,B16,no binding (tested: 10 µg/mL)

# Biological target: T3, human Myl12a-His (human, UniProt P19105 1-171)
# T3 construct: Made in E. coli; GST tag cleaved with PreScission Protease; DTT-treated monomer
# T3 sequence: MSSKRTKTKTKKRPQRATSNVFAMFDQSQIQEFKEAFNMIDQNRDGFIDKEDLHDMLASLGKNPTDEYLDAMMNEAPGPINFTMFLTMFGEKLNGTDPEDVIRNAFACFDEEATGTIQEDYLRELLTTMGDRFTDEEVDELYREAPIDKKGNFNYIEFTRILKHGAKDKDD
# Assay: ELISA, human Myl12a-His coated, anti-human IgG-HRP
# Experimental: as §1
row,Binder,binding result
1,B1,binds
2,B2,binds
3,B3,binds
4,B4,binds
5,B5,binds
6,B6,binds
7,B7,binds
8,B8,binds
9,B9,binds
10,B10,binds
11,B11,binds
12,B12,binds
13,B13,binds
14,B14,binds
15,B15,binds
16,B16,binds

# Biological target: T4, human Myl12b-His (human, UniProt O14950 1-172)
# T4 construct: Made in E. coli; GST tag cleaved with PreScission Protease; DTT-treated monomer
# T4 sequence: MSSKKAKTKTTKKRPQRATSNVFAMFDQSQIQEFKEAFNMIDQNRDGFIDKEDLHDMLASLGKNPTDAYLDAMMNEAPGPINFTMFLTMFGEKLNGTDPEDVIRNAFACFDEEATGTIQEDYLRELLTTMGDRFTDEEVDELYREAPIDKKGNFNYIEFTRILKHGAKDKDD
# Assay: ELISA, human Myl12b-His coated, anti-human IgG-HRP
# Experimental: as §1
row,Binder,binding result
1,B1,binds
2,B2,binds
3,B3,binds
4,B4,binds
5,B5,binds
6,B6,binds
7,B7,binds
8,B8,binds
9,B9,binds
10,B10,binds
11,B11,binds
12,B12,binds
13,B13,binds
14,B14,binds
15,B15,binds
16,B16,binds
